From publication PMC4409382, “Structural Analysis of the 14-3-3ζ/Chibby Interaction Involved in Wnt/β-Catenin Signaling” (PLoS ONE, 2015) come the findings set out here.

Sequences and labels used below:
T1: 14-3-3ζΔC12 (human, UniProt P63104 1-233)
T1 construct: N-terminal glycine retained after TEV cleavage of the His tag; 14-3-3 zeta, human, full-length 14-3-3ζ with the 12 C-terminal residues deleted; source: E. coli BL21 (DE3) pLysS, purified (Ni Sepharose, TEV cleavage, second Ni Sepharose pass); not shown: His tag, N-terminal, cleaved
T1 sequence: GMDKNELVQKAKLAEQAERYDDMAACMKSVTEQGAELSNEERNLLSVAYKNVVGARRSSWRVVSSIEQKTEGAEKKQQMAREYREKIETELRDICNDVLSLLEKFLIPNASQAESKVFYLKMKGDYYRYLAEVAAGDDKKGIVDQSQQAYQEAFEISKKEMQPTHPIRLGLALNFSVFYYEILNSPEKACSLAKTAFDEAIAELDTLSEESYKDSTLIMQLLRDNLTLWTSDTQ

T2: 14-3-3ζ (human, UniProt P63104 1-245)
T2 construct: N-terminal glycine retained after TEV cleavage of the His tag; 14-3-3 zeta, human, ORF purchased from GeneCopoeia, full-length construct; Dimer (~56 kDa); the stoichiometry n counts on the 14-3-3 monomer; also called full-length 14-3-3ζ; source: E. coli BL21 (DE3) pLysS, purified (Ni Sepharose, TEV cleavage, second Ni Sepharose pass); not shown: His tag, N-terminal, cleaved
T2 sequence: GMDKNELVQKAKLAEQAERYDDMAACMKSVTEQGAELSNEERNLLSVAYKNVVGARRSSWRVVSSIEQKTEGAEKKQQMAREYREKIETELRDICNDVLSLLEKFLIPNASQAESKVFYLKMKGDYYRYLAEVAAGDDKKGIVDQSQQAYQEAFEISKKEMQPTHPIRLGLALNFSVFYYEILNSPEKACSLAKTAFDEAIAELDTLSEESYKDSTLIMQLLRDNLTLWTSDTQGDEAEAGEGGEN

T3: 14-3-3ζ K49A (human, UniProt P63104 1-245, K49A)
T3 construct: N-terminal glycine retained after TEV cleavage of the His tag; 14-3-3 zeta, human, with the K49A mutation introduced into 14-3-3ζ (the full-length construct); they say that all 14-3-3ζ constructs were purified in the same way; source: E. coli, purified (Ni Sepharose, TEV cleavage, second Ni Sepharose pass); not shown: His tag, N-terminal, cleaved
T3 sequence: T2 sequence with K50A

T4: 14-3-3ζΔC12 (human, UniProt P63104 1-233)
T4 construct: N-terminal glycine retained after TEV cleavage of the His tag; 14-3-3ζ, human, full-length construct with the 12 C-terminal residues deleted; Unlabelled for ITC; 15N, 13C, 2H labelled for the NMR titrations; also called 14-3-3ζ with the C-terminal 12 residues removed; source: E. coli BL21 (DE3) pLysS, purified (Ni Sepharose, TEV cleavage, second Ni Sepharose pass); not shown: His tag, N-terminal, …
T4 sequence: T1 sequence

T5: 14-3-3ζ K49A (human, UniProt P63104 1-245, K49A)
T5 construct: N-terminal glycine retained after TEV cleavage of the His tag; 14-3-3ζ, human, with the K49A mutation introduced into 14-3-3ζ; source: purified by Ni Sepharose with TEV cleavage as all 14-3-3ζ constructs; not shown: His tag, N-terminal, cleaved
T5 sequence: T2 sequence with K50A

T6: Chibby 7-mer (Homo sapiens, UniProt Q9Y3M2)
T6 chain: Ac-RKSA[pS]LS-NH2

T7: Chibby 18-mer (Homo sapiens, UniProt Q9Y3M2)
T7 chain: KTPPRKSA[pS]LSNLHSLDR

T8: Chibby 7-mer S22P (Homo sapiens, UniProt Q9Y3M2)
T8 chain: RKSASLP

T9: Chibby 13-mer S22P (Homo sapiens, UniProt Q9Y3M2)
T9 chain: KTPPRKSASLPNL

T10: Chibby 18-mer L24A (Homo sapiens, UniProt Q9Y3M2)
T10 chain: KTPPRKSASLSNAHSLDR

T11: Chibby 13-mer (Homo sapiens, UniProt Q9Y3M2)
T11 chain: KTPPRKSA[pS]LSNL

T12: Chibby 11-mer (Homo sapiens, UniProt Q9Y3M2)
T12 chain: H-KTPPRKSA[pS]LS-NH2

B1: pCby 13-mer (peptide)
peptide: KTPPRKSA[pS]LSNL
notes: Chibby (Cby), human, residues 12-24; source: synthetic peptide, bought: GenScript USA Inc
B2: pCby 18-mer (peptide)
peptide: KTPPRKSA[pS]LSNLHSLDR
notes: Chibby (Cby), human, residues 12-29; also called Cby 18-mer WT; source: synthetic peptide, bought: GenScript USA Inc
B3: pCby S22P 18-mer (peptide)
peptide: KTPPRKSA[pS]LPNLHSLDR
notes: Chibby (Cby), human, residues 12-29 with S22P; also called Cby 18-mer S22P; source: synthetic peptide, bought: TUFTS University Core Facility
B4: pCby 13-mer (peptide)
peptide: KTPPRKSA[pS]LSNL
notes: Chibby (Cby), human, residues 12-24; free NH2 and COOH ends; also called phosphorylated Cby peptide; source: synthetic peptide, bought: GenScript USA Inc
B5: pCby 18-mer (peptide)
peptide: KTPPRKSA[pS]LSNLHSLDR
notes: Chibby (Cby), human, residues 12-29; free NH2 and COOH ends; also called Cby 18-mer WT; WT Cby 18-mer; source: synthetic peptide, bought: GenScript USA Inc
B6: pCby S22P 18-mer (peptide)
peptide: KTPPRKSA[pS]LPNLHSLDR
notes: Chibby (Cby), human, residues 12-29 with S22P; free NH2 and COOH ends; also called Cby 18-mer S22P; source: synthetic peptide, bought: TUFTS University Core Facility
B7: 14-3-3ζ (human, full-length) (natural protein)
chain: T2 sequence
notes: N-terminal glycine retained after TEV cleavage of the His tag; 14-3-3ζ, human, ORF bought from GeneCopoeia, in Gateway pDEST17; full-length; Dimer in the crystal; the ITC stoichiometry counts on the 14-3-3 monomer; also called WT 14-3-3ζ; source: E. coli BL21 (DE3) pLysS, purified (Ni Sepharose, TEV cleavage, second Ni Sepharose pass); not shown: His tag, N-terminal, cleaved
B8: 14-3-3ζ (protein)
chain: MDKNELVQKAKLAEQAERYDDMAACMKSVTEQGAELSNEERNLLSVAYKNVVGARRSSWRVVSSIEQKTEGAEKKQQMAREYREKIETELRDICNDVLSLLEKFLIPNASQAESKVFYLKMKGDYYRYLAEVAAGDDKKGIVDQSQQAYQEAFEISKKEMQPTHPIRLGLALNFSVFYYEILNSPEKACSLAKTAFDEAIAELDTLSEESYKDSTLIMQLLRDNLTLWTSDTQGDEAEAGEGGEN

For data set [1], the target named is T1, 14-3-3ζΔC12. Nature of the data set: ITC; duplicate set of titrations; 5 uL aliquots of ~1-2 mM peptide titrated into the 1.4 mL cell with ~100-200 uM 14-3-3ζ; 25 °C; 50 mM sodium phosphate, 100 mM NaCl, 1 mM DTT, pH 6.8; one-site model; n per 14-3-3 monomer. Particulars: both partners purified.
The target of a further data set is T2, 14-3-3ζ. Described as above. The note with it: both partners purified.
The target in data set [2] is T3, 14-3-3ζ K49A. Described as above. The note with it: both partners purified.
Data set [3] deals with T4, 14-3-3ζΔC12. Nature of the data set: ITC; VP-ITC, 25°C; ~1-2 mM peptide titrated in 5 uL aliquots into ~100-200 uM 14-3-3ζ in the cell; 50 mM sodium phosphate, 100 mM NaCl, 1 mM DTT, pH 6.8; one-site model; in duplicate. Particulars: both partners purified.
Data set [4] has as its target B7. The data set is described as above. Particulars: both partners purified.
In data set [5] the target is T5, 14-3-3ζ K49A. The description is as above. Particulars: both partners purified.
Data set [6] concerns the molecule itself. The experiment in a line: crystal structure; 14-3-3ζ (10 mg/mL) co-crystallised with the phosphorylated Cby 18-mer (protein:peptide 1:4), 20 mM Tris pH 7.5, 100 mM NaCl; reservoir 200 mM NH4HCO2, 16-20% PEG 3350; 4°C; 2.41 Å.
A further data set deals with T6, Chibby 7-mer. Nature of the data set: ITC.
The next data set has as its target T7, Chibby 18-mer. Nature of the data set: ITC.
Another data set addresses T8, Chibby 7-mer S22P. Nature of the data set: ITC.
Another data set concerns the target T9, Chibby 13-mer S22P. The experiment in a line: ITC.
The target in another data set is T10, Chibby 18-mer L24A. Nature of the data set: ITC.
Another data set deals with T11, Chibby 13-mer. The experiment in a line: ITC.
For a further data set, the target named is T12, Chibby 11-mer. The experiment in a line: ITC.

Positions count from the first letter of the chain named. Names and notes keep the numbering of the source. Square brackets hold non-standard residues; d marks the D form. Ends that are not written are not given here. pS = N[C@@H](COP(=O)(O)O)C(=O)O

On to B1, for which, in the data set with 14-3-3ζΔC12 [1], the Kd was determined as 14.5 µM and the “stoichiometry N” value was 1.06.

Turning to B2, the results for the Kd with 14-3-3ζ, with 14-3-3ζ K49A [2] and with 14-3-3ζΔC12 [1] were 4.9 µM, 5.5 µM and 8.5 µM, respectively. The “stoichiometry N” value with 14-3-3ζ turned out to be 0.94; with 14-3-3ζ K49A [2], 1.07; with 14-3-3ζΔC12 [1], 1.02.

In the case of B3, in the data set with 14-3-3ζ, the Kd is 0.38 µM and the “stoichiometry N” value came to 1.08. Further, in the data set with 14-3-3ζ K49A [2], the Kd was 1.8 µM and the “stoichiometry N” value came out at 0.97.

For B4, in the data set with 14-3-3ζΔC12 [3], the Kd turned out to be 14.9 µM, the dH was -2.08 ± 0.03 kcal/mol and the “stoichiometry N” value turned out to be 0.99.

With B5, in [4], the Kd was determined as 4.6 µM, the dH was -4.35 ± 0.05 kcal/mol and the “stoichiometry N” value turned out to be 0.96. In the data set with 14-3-3ζ K49A [5], binding was put at a Kd of 3.8 µM, the dH is -4.16 ± 0.05 kcal/mol and the “stoichiometry N” value was determined as 1.01. In addition, in the data set with 14-3-3ζΔC12 [3], the Kd worked out at 6.8 µM, the dH is -3.35 ± 0.06 kcal/mol and the “stoichiometry N” value amounted to 1.04.

As for B6, in data set [4], the Kd stood at 0.36 µM, the dH was -8.03 ± 0.02 kcal/mol and the “stoichiometry N” value stood at 1.05. In the data set with 14-3-3ζ K49A [5], binding was characterised by a dissociation constant (Kd) of 1.9 µM, the dH is -7.13 ± 0.03 kcal/mol and the “stoichiometry N” value stood at 1.07.

In the case of B7, the binding result in data set [6] is listed as “binds”.

As to B8, the Kd is approximately 44 µM with Chibby 7-mer; approximately 5 µM with Chibby 18-mer; approximately 3 µM in the data set with Chibby 7-mer S22P; approximately 1 µM in the data set with Chibby 13-mer S22P; approximately 21 µM with Chibby 18-mer L24A; approximately 15 µM with Chibby 13-mer. In the data set with Chibby 11-mer, this molecule yielded a Kd of approximately 18 µM.
